# From IntAct's records for PubMed 25910212
# B1: Emerin (Homo sapiens), P50402 (parent)
# chain: MDNYADLSDTELTTLLRRYNIPHGPVVGSTRRLYEKKIFEYETQRRRLSPPSSSAASSYSFSDLNSTRGDADMYDLPKKEDALLYQSKGYNDDYYEESYFTTRTYGEPESAGPSRAVRQSVTSFPDADAFHHQVHDDDLLSSSEEECKDRERPMYGRDSAYQSITHYRPVSASRSSLDLSYYPTSSSTSFMSSSSSSSSWLTRRAIRPENRAPGAGLGQDRQVPLWGQLLLFLVFVIVLFFIYHFMQAEEGNPF
# partner: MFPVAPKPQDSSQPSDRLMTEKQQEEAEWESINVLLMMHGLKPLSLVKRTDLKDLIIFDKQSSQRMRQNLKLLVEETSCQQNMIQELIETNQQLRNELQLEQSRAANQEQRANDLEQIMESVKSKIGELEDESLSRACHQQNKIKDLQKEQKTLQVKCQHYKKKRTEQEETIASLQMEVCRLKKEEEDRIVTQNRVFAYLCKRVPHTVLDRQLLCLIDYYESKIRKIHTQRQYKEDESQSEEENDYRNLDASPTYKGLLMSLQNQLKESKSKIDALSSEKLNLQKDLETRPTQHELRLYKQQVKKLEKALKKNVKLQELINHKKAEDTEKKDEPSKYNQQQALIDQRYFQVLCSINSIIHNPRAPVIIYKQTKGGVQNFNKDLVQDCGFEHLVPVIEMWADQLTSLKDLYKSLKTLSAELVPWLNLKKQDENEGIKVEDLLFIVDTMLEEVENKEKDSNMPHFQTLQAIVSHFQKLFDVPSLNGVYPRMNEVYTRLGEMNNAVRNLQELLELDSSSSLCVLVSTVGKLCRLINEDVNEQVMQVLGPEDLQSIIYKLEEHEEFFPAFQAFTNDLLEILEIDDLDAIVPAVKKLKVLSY
# B2: U4/U6 small nuclear ribonucleoprotein Prp31 (Homo sapiens), Q8WWY3 (parent)
# chain: MSLADELLADLEEAAEEEEGGSYGEEEEEPAIEDVQEETQLDLSGDSVKTIAKLWDSKMFAEIMMKIEEYISKQAKASEVMGPVEAAPEYRVIVDANNLTVEIENELNIIHKFIRDKYSKRFPELESLVPNALDYIRTVKELGNSLDKCKNNENLQQILTNATIMVVSVTASTTQGQQLSEEELERLEEACDMALELNASKHRIYEYVESRMSFIAPNLSIIIGASTAAKIMGVAGGLTNLSKMPACNIMLLGAQRKTLSGFSSTSVLPHTGYIYHSDIVQSLPPDLRRKAARLVAAKCTLAARVDSFHESTEGKVGYELKDEIERKFDKWQEPPPVKQVKPLPAPLDGQRKKRGGRRYRKMKERLGLTEIRKQANRMSFGEIEEDAYQEDLGFSLGHLGKSGSGRVRQTQVNEATKARISKTLQRTLQKQSVVYGGKSTIRDRSSGTASSVAFTPLQGLEIVNPQAAEKKVAEANQKYFSSMAEFLKVKGEKSGLMST
# partner: B1 partner
# B3: Chorion-specific transcription factor GCMb (Homo sapiens), O75603 (parent)
# chain: MPAAAVQEAVGVCSYGMQLSWDINDPQMPQELALFDQFREWPDGYVRFIYSSDEKKAQRHLSGWAMRNTNNHNGHILKKSCLGVVVCTQACTLPDGSRLQLRPAICDKARLKQQKKACPNCHSALELIPCRGHSGYPVTNFWRLDGNAIFFQAKGVHDHPRPESKSETEARRSAIKRQMASFYQPQKKRIRESEAEENQDSSGHFSNIPPLENPEDFDIVTETSFPIPGQPCPSFPKSDVYKATCDLATFQGDKMPPFQKYSSPRIYLPRPPCSYELANPGYTNSSPYPTLYKDSTSIPNDTDWVHLNTLQCNVNSYSSYERSFDFTNKQHGWKPALGKPSLVERTNHGQFQAMATRPYYNPELPCRYLTTPPPGAPALQTVITTTTKVSYQAYQPPAMKYSDSVREVKSLSSCNYAPEDTGMSVYPEPWGPPVTVTRAASPSGPPPMKIAGDCRAIRPTVAIPHEPVSSRTDEAETWDVCLSGLGSAVSYSDRVGPFFTYNNEDF
# B4: Elongation factor Ts, mitochondrial (Homo sapiens), P43897-2 (parent)
# chain: MSLLRSLRVFLVARTGSYPAGSLLRQSPQPRHTFYAGPRLSASASSKELLMKLRRKTGYSFVNCKKALETCGGDLKQAEIWLHKEAQKEGWSKAAKLQGRKTKEGLIGLLQEGNTTVLVEVNCETDFVSRNLKFQLLVQQVALGTMMHCQTLKDQPSAYSKVQWLTPVNLALWEAEAGGSLEGFLNSSELSGLPAGPDREGSLKDQLALAIGKLGENMILKRAAWVKVPSGFYVGSYVHGAMQSPSLHKLVLGKYGALVICETSEQKTNLEDVGRRLGQHVVGMAPLSVGSLDDEPGGEAETKMLSQPYLLDPSITLGQYVQPQGVSVVDFVRFECGEGEEAAETE
# B5: Plakophilin-2 (Homo sapiens), Q99959-2 (parent)
# chain: MAAPGAPAEYGYIRTVLGQQILGQLDSSSLALPSEAKLKLAGSSGRGGQTVKSLRIQEQVQQTLARKGRSSVGNGNLHRTSSVPEYVYNLHLVENDFVGGRSPVPKTYDMLKAGTTATYEGRWGRGTAQYSSQKSVEERSLRHPLRRLEISPDSSPERAHYTHSDYQYSQRSQAGHTLHHQESRRAALLVPPRYARSEIVGVSRAGTTSRQRHFDTYHRQYQHGSVSDTVFDSIPANPALLTYPRPGTSRSMGNLLEKENYLTAGLTVGQVRPLVPLQPVTQNRASRSSWHQSSFHSTRTLREAGPSVAVDSSGRRAHLTVGQAAAGGSGNLLTERSTFTDSQLGNADMEMTLERAVSMLEADHMLPSRISAAATFIQHECFQKSEARKRVNQLRGILKLLQLLKVQNEDVQRAVCGALRNLVFEDNDNKLEVAELNGVPRLLQVLKQTRDLETKKQITGLLWNLSSNDKLKNLMITEALLTLTENIIIPFSGWPEGDYPKANGLLDFDIFYNVTGCLRNMSSAGADGRKAMRRCDGLIDSLVHYVRGTIADYQPDDKATENCVCILHNLSYQLEAELPEKYSQNIYIQNRNIQTDNNKSIGCFGSRSRKVKEQYQDVPMPEEKSNPKGVEWLWHSIVIRMYLSLIAKSVRNYTQEASLGALQNLTAGSGPMPTSVAQTVVQKESGLQHTRKMLHVGDPSVKKTAISLLRNLSRNLSLQNEIAKETLPDLVSIIPDTVPSTDLLIETTASACYTLNNIIQNSYQNARDLLNTGGIQKIMAISAGDAYASNKASKAASVLLYSLWAHTELHHAYKKAQFKKTDFVNSRTAKAYHSLKD
# partner: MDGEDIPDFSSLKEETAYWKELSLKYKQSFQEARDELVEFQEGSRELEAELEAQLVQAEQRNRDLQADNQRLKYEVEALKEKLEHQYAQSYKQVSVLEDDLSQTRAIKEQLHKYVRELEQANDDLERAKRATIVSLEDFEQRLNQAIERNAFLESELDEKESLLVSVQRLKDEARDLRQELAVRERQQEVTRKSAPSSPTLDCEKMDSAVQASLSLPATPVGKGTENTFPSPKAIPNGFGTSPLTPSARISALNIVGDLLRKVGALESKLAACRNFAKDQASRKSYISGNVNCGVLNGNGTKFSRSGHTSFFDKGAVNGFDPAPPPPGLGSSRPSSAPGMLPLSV
# B6: Elongation factor Ts, mitochondrial (Homo sapiens), P43897-2 (parent)
# chain: B4 chain
# partner: B1 partner
# B7: U4/U6 small nuclear ribonucleoprotein Prp31 (Homo sapiens), Q8WWY3 (parent)
# chain: B2 chain
# partner: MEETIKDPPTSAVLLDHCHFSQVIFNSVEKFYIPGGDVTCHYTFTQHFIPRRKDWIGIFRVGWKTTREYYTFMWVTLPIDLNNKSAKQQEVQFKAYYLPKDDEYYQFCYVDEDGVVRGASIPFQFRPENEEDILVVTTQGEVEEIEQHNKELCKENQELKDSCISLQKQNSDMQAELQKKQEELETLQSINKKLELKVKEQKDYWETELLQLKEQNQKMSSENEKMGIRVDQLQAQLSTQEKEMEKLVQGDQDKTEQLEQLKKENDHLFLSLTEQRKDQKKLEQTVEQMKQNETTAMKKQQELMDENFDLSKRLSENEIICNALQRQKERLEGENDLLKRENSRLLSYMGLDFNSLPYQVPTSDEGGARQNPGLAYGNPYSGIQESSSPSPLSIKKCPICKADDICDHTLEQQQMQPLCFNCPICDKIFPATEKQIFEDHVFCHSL
# B8: Multifunctional procollagen lysine hydroxylase and glycosyltransferase LH3 (Homo sapiens), O60568 (parent)
# chain: MTSSGPGPRFLLLLPLLLPPAASASDRPRGRDPVNPEKLLVITVATAETEGYLRFLRSAEFFNYTVRTLGLGEEWRGGDVARTVGGGQKVRWLKKEMEKYADREDMIIMFVDSYDVILAGSPTELLKKFVQSGSRLLFSAESFCWPEWGLAEQYPEVGTGKRFLNSGGFIGFATTIHQIVRQWKYKDDDDDQLFYTRLYLDPGLREKLSLNLDHKSRIFQNLNGALDEVVLKFDRNRVRIRNVAYDTLPIVVHGNGPTKLQLNYLGNYVPNGWTPEGGCGFCNQDRRTLPGGQPPPRVFLAVFVEQPTPFLPRFLQRLLLLDYPPDRVTLFLHNNEVFHEPHIADSWPQLQDHFSAVKLVGPEEALSPGEARDMAMDLCRQDPECEFYFSLDADAVLTNLQTLRILIEENRKVIAPMLSRHGKLWSNFWGALSPDEYYARSEDYVELVQRKRVGVWNVPYISQAYVIRGDTLRMELPQRDVFSGSDTDPDMAFCKSFRDKGIFLHLSNQHEFGRLLATSRYDTEHLHPDLWQIFDNPVDWKEQYIHENYSRALEGEGIVEQPCPDVYWFPLLSEQMCDELVAEMEHYGQWSGGRHEDSRLAGGYENVPTVDIHMKQVGYEDQWLQLLRTYVGPMTESLFPGYHTKARAVMNFVVRYRPDEQPSLRPHHDSSTFTLNVALNHKGLDYEGGGCRFLRYDCVISSPRKGWALLHPGRLTHYHEGLPTTWGTRYIMVSFVDP
# B9: Synaptogyrin-1 (Homo sapiens), O43759-2 (parent)
# chain: MEGGAYGAGKAGGAFDPYTLVRQPHTILRVVSWLFSIVVFGSIVNEGYLNSASEGEEFCIYNRNPNACSYGVAVGVLAFLTCLLYLALDVYFPQISSVKDRKKAVLSDIGVSAFWAFLWFVGFCYLANQWQVSKPKDNPLNEGTDAARAAIAFSFFSIFTWSLTAALAVRRFKDLSFQEEYSTLFPASAQP
# partner: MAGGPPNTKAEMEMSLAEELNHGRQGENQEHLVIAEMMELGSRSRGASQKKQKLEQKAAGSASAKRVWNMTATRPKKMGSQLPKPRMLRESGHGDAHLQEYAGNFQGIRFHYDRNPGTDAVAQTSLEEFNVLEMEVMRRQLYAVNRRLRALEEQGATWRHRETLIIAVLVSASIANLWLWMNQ
# B10: Emerin (Homo sapiens), P50402 (parent)
# chain: B1 chain
# partner: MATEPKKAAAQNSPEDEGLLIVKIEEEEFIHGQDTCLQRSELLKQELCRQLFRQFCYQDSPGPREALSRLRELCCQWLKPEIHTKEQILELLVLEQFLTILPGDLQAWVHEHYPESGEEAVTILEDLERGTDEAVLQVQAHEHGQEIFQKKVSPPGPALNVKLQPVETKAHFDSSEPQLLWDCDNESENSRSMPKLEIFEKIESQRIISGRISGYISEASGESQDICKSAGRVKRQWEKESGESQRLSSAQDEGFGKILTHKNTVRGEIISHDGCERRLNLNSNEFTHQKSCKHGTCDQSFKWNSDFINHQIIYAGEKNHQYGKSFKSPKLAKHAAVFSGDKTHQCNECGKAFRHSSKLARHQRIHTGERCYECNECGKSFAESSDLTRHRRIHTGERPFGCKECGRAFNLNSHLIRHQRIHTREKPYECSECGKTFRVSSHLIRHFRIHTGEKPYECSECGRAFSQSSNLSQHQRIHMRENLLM
# Variants of: B1
# Settings: with cep70_human CEP70, Q8NHQ1
row,Variant,effect of a mutation on the interaction
1,D72V,with no effect
2,P183H,with no effect
3,P183T,with no effect
4,S54F,with no effect

# Variants of: B2
# Settings: with cep70_human CEP70, Q8NHQ1
row,Variant,effect of a mutation on the interaction
1,L107V,with no effect

# Variants of: B3
# Settings: with crx_human CRX
row,Variant,effect of a mutation on the interaction
1,R47L,with no effect
2,G63S,with no effect
3,G203S,with no effect

# Variants of: B3
# Settings: with RBPMS
row,Variant,effect of a mutation on the interaction
1,R47L,with no effect
2,G63S,disrupting interaction strength
3,G203S,with no effect

# Variants of: B4
# Settings: with pp12c_human PPP1R12C
row,Variant,effect of a mutation on the interaction
1,R333W,disrupting interaction strength

# Variants of: B5
# Settings: with ndel1_human NDEL1, Q9GZM8
row,Variant,effect of a mutation on the interaction
1,S644P,disrupting interaction strength
2,A264V,with no effect
3,S140F,disrupting interaction strength

# Variants of: B6
# Settings: with cep70_human CEP70, Q8NHQ1
row,Variant,effect of a mutation on the interaction
1,R333W,disrupting interaction strength

# Variants of: B7
# Settings: with caco2_human CALCOCO2, Q13137
row,Variant,effect of a mutation on the interaction
1,L107V,with no effect

# Variants of: B8
# Settings: with ehmt2_human EHMT2, Q96KQ7
# Chain of ehmt2_human EHMT2, Q96KQ7 (Q96KQ7 whole entry): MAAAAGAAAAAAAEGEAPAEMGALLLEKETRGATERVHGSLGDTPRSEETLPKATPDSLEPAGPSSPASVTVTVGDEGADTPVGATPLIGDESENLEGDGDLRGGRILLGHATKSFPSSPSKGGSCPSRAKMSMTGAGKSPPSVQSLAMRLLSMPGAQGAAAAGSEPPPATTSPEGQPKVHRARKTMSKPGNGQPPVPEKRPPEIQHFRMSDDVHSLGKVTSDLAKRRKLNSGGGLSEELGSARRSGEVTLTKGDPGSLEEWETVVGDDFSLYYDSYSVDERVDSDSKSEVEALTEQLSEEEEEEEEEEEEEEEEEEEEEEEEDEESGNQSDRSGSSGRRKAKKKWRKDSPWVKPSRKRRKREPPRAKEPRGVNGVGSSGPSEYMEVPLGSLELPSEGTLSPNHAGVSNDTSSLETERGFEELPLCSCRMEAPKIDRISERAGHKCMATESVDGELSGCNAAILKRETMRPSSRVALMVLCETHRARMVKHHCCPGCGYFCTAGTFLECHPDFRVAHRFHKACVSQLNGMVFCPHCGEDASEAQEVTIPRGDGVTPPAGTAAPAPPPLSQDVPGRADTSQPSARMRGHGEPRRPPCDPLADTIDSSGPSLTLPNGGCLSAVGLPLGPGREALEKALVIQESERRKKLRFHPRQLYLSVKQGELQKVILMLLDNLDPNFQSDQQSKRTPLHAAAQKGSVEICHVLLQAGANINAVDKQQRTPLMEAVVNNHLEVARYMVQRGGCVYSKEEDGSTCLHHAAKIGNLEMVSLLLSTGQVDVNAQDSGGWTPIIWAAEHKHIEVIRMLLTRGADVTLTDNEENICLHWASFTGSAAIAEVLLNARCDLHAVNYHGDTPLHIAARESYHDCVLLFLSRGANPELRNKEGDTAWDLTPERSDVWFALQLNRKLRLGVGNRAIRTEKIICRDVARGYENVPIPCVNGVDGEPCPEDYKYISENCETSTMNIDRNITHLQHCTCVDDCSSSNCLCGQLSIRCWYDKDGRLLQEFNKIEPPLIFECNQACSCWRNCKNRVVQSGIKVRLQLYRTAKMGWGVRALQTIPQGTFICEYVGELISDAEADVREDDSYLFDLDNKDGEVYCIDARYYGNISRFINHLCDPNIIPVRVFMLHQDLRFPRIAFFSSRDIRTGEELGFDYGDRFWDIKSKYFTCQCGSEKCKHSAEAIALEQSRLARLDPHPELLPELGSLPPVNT
row,Variant,effect of a mutation on the interaction
1,N223S,with no effect

# Variants of: B9
# Settings: with fate1_human FATE1, Q969F0
row,Variant,effect of a mutation on the interaction
1,K99E,disrupting interaction strength

# Variants of: B10
# Settings: with zn165_human ZNF165, P49910
row,Variant,effect of a mutation on the interaction
1,D72V,with no effect
2,P183H,with no effect
3,P183T,with no effect
